{"source": "patent US8840891", "about": "(RSR, dated 2014)", "key": {"[1]": {"biological_target": "TSHR with Glu178 mutated to Alanine expressed on CHO cells (human) (UniProt P16473)", "assay": "cell-based or functional assay"}, "[2]": {"biological_target": "TSHR with Lys209 mutated to Alanine expressed on CHO cells (human) (UniProt P16473)", "assay": "cell-based or functional assay"}, "[3]": {"biological_target": "wild type human TSHR (thyrotropin receptor) expressed on CHO cells (human) (UniProt P16473)", "assay": "cell-based or functional assay"}, "[4]": {"biological_target": "TSHR with Asp232 mutated to Alanine expressed on CHO cells (human) (UniProt P16473)", "assay": "cell-based or functional assay"}, "[5]": {"biological_target": "wild type human TSHR (thyrotropin receptor) expressed on CHO cells (human) (UniProt P16473)", "assay": "cell-based or functional assay", "remark": "listed apart in the source"}, "[6]": {"biological_target": "TSHR with Lys250 mutated to Alanine expressed on CHO cells (human) (UniProt P16473)", "assay": "cell-based or functional assay"}, "[7]": {"biological_target": "wild type human TSHR (thyrotropin receptor) expressed on CHO cells (human) (UniProt P16473)", "assay": "cell-based or functional assay", "remark": "listed apart in the source"}, "[8]": {"biological_target": "TSHR coated onto tubes (TSHR coated tubes) (human) (UniProt P16473)", "assay": "TSHR coated tubes, in the presence of HBD pool (Tables 4a, 4b)"}}, "note": "Like-named read-outs stand apart in the source and are kept apart here.", "data": [{"binder": "5C9 IgG (human monoclonal autoantibody to the TSHR) (antibody, from another filing, V domains shown) VH: EVQLVESGGGLIQPGGSLRLSCAASGFTVSSNYMSWVRQAPGKGLEWVSVTYSGGSTSYADSVKGRFTISRDNSKNTLYLQMNSLRAEDTAVYYCARGGRYCSSISCYARSGCDYWGQGTLVTVSS VL: AIQMTQSPSSLSASVGDRVTITCRASQSISNYLNWYQQKPGKAPKLLIYAASSLQSGVPSRFSGSGSGTDFTLTISSLQPEDFATYYCQQSYSSPSTTFGQGTKLEIK", "values": [{"measurement": "Cyclic AMP produced; 5C9 0.01 µg/mL + TSH (fmol/cell well)", "setting": "[1]", "result": 8170}, {"measurement": "Cyclic AMP produced; 5C9 0.1 µg/mL + TSH (fmol/cell well)", "setting": "[1]", "result": 7310}, {"measurement": "Cyclic AMP produced; 5C9 1.0 µg/mL + TSH (fmol/cell well)", "setting": "[1]", "result": 3570}, {"measurement": "Cyclic AMP produced; 5C9 10 µg/mL + TSH (fmol/cell well)", "setting": "[1]", "result": 1900}, {"measurement": "Cyclic AMP produced; 5C9 100 µg/mL + TSH (fmol/cell well)", "setting": "[1]", "result": 894}, {"measurement": "Cyclic AMP produced; 5C9 100 µg/mL only (fmol/cell well)", "setting": "[1]", "result": 134}, {"measurement": "Mutated/wild type (%); 5C9 0.01 µg/mL + TSH", "setting": "[1]", "result": 65, "unit": "%"}, {"measurement": "Mutated/wild type (%); 5C9 0.1 µg/mL + TSH", "setting": "[1]", "result": 168, "unit": "%"}, {"measurement": "Mutated/wild type (%); 5C9 1.0 µg/mL + TSH", "setting": "[1]", "result": 519, "unit": "%"}, {"measurement": "Mutated/wild type (%); 5C9 10 µg/mL + TSH", "setting": "[1]", "result": 302, "unit": "%"}, {"measurement": "Mutated/wild type (%); 5C9 100 µg/mL + TSH", "setting": "[1]", "result": 126, "unit": "%"}, {"measurement": "Mutated/wild type (%); 5C9 100 µg/mL only", "setting": "[1]", "result": 68, "unit": "%"}, {"measurement": "Cyclic AMP produced; 5C9 0.01 µg/mL + TSH (fmol/cell well)", "setting": "[2]", "result": 5960}, {"measurement": "Cyclic AMP produced; 5C9 0.1 µg/mL + TSH (fmol/cell well)", "setting": "[2]", "result": 278}, {"measurement": "Cyclic AMP produced; 5C9 1.0 µg/mL + TSH (fmol/cell well)", "setting": "[2]", "result": 360}, {"measurement": "Cyclic AMP produced; 5C9 10 µg/mL + TSH (fmol/cell well)", "setting": "[2]", "result": 482}, {"measurement": "Cyclic AMP produced; 5C9 100 µg/mL + TSH (fmol/cell well)", "setting": "[2]", "result": 354}, {"measurement": "Cyclic AMP produced; 5C9 100 µg/mL only (fmol/cell well)", "setting": "[2]", "result": 280}, {"measurement": "Mutated/wild type (%); 5C9 0.01 µg/mL + TSH", "setting": "[2]", "result": 39, "unit": "%"}, {"measurement": "Mutated/wild type (%); 5C9 0.1 µg/mL + TSH", "setting": "[2]", "result": 6, "unit": "%"}, {"measurement": "Mutated/wild type (%); 5C9 1.0 µg/mL + TSH", "setting": "[2]", "result": 30, "unit": "%"}, {"measurement": "Mutated/wild type (%); 5C9 10 µg/mL + TSH", "setting": "[2]", "result": 49, "unit": "%"}, {"measurement": "Mutated/wild type (%); 5C9 100 µg/mL + TSH", "setting": "[2]", "result": 59, "unit": "%"}, {"measurement": "Mutated/wild type (%); 5C9 100 µg/mL only", "setting": "[2]", "result": 103, "unit": "%"}, {"measurement": "Cyclic AMP produced; 5C9 0.01 µg/mL + TSH (fmol/cell well)", "setting": "[3]", "result": 15400}, {"measurement": "Cyclic AMP produced; 5C9 0.1 µg/mL + TSH (fmol/cell well)", "setting": "[3]", "result": 4700}, {"measurement": "Cyclic AMP produced; 5C9 1.0 µg/mL + TSH (fmol/cell well)", "setting": "[3]", "result": 1180}, {"measurement": "Cyclic AMP produced; 5C9 10 µg/mL + TSH (fmol/cell well)", "setting": "[3]", "result": 984}, {"measurement": "Cyclic AMP produced; 5C9 100 µg/mL + TSH (fmol/cell well)", "setting": "[3]", "result": 602}, {"measurement": "Cyclic AMP produced; 5C9 100 µg/mL only (fmol/cell well)", "setting": "[3]", "result": 272}, {"measurement": "Cyclic AMP produced; 5C9 0.01 µg/mL + TSH (fmol/cell well)", "setting": "[4]", "result": 15300}, {"measurement": "Cyclic AMP produced; 5C9 0.1 µg/mL + TSH (fmol/cell well)", "setting": "[4]", "result": 6560}, {"measurement": "Cyclic AMP produced; 5C9 1.0 µg/mL + TSH (fmol/cell well)", "setting": "[4]", "result": 1880}, {"measurement": "Cyclic AMP produced; 5C9 10 µg/mL + TSH (fmol/cell well)", "setting": "[4]", "result": 710}, {"measurement": "Cyclic AMP produced; 5C9 100 µg/mL + TSH (fmol/cell well)", "setting": "[4]", "result": 55}, {"measurement": "Cyclic AMP produced; 5C9 100 µg/mL only (fmol/cell well)", "setting": "[4]", "result": 99}, {"measurement": "Mutated/wild type (%); 5C9 0.01 µg/mL + TSH", "setting": "[4]", "result": 87, "unit": "%"}, {"measurement": "Mutated/wild type (%); 5C9 0.1 µg/mL + TSH", "setting": "[4]", "result": 89, "unit": "%"}, {"measurement": "Mutated/wild type (%); 5C9 1.0 µg/mL + TSH", "setting": "[4]", "result": 176, "unit": "%"}, {"measurement": "Mutated/wild type (%); 5C9 10 µg/mL + TSH", "setting": "[4]", "result": 89, "unit": "%"}, {"measurement": "Mutated/wild type (%); 5C9 100 µg/mL + TSH", "setting": "[4]", "result": 33, "unit": "%"}, {"measurement": "Mutated/wild type (%); 5C9 100 µg/mL only", "setting": "[4]", "result": 19, "unit": "%"}, {"measurement": "Cyclic AMP produced; 5C9 0.01 µg/mL + TSH (fmol/cell well)", "setting": "[5]", "result": 17600}, {"measurement": "Cyclic AMP produced; 5C9 0.1 µg/mL + TSH (fmol/cell well)", "setting": "[5]", "result": 7330}, {"measurement": "Cyclic AMP produced; 5C9 1.0 µg/mL + TSH (fmol/cell well)", "setting": "[5]", "result": 1070}, {"measurement": "Cyclic AMP produced; 5C9 10 µg/mL + TSH (fmol/cell well)", "setting": "[5]", "result": 794}, {"measurement": "Cyclic AMP produced; 5C9 100 µg/mL + TSH (fmol/cell well)", "setting": "[5]", "result": 166}, {"measurement": "Cyclic AMP produced; 5C9 100 µg/mL only (fmol/cell well)", "setting": "[5]", "result": 522}, {"measurement": "Cyclic AMP produced; 5C9 0.01 µg/mL + TSH (fmol/cell well)", "setting": "[6]", "result": 14500}, {"measurement": "Cyclic AMP produced; 5C9 0.1 µg/mL + TSH (fmol/cell well)", "setting": "[6]", "result": 8490}, {"measurement": "Cyclic AMP produced; 5C9 1.0 µg/mL + TSH (fmol/cell well)", "setting": "[6]", "result": 2570}, {"measurement": "Cyclic AMP produced; 5C9 10 µg/mL + TSH (fmol/cell well)", "setting": "[6]", "result": 862}, {"measurement": "Cyclic AMP produced; 5C9 100 µg/mL + TSH (fmol/cell well)", "setting": "[6]", "result": 96}, {"measurement": "Cyclic AMP produced; 5C9 100 µg/mL only (fmol/cell well)", "setting": "[6]", "result": 448}, {"measurement": "Mutated/wild type (%); 5C9 0.01 µg/mL + TSH", "setting": "[6]", "result": 95, "unit": "%"}, {"measurement": "Mutated/wild type (%); 5C9 0.1 µg/mL + TSH", "setting": "[6]", "result": 135, "unit": "%"}, {"measurement": "Mutated/wild type (%); 5C9 1.0 µg/mL + TSH", "setting": "[6]", "result": 399, "unit": "%"}, {"measurement": "Mutated/wild type (%); 5C9 10 µg/mL + TSH", "setting": "[6]", "result": 301, "unit": "%"}, {"measurement": "Mutated/wild type (%); 5C9 100 µg/mL + TSH", "setting": "[6]", "result": 61, "unit": "%"}, {"measurement": "Mutated/wild type (%); 5C9 100 µg/mL only", "setting": "[6]", "result": 98, "unit": "%"}, {"measurement": "Cyclic AMP produced; 5C9 0.01 µg/mL + TSH (fmol/cell well)", "setting": "[7]", "result": 15200}, {"measurement": "Cyclic AMP produced; 5C9 0.1 µg/mL + TSH (fmol/cell well)", "setting": "[7]", "result": 6300}, {"measurement": "Cyclic AMP produced; 5C9 1.0 µg/mL + TSH (fmol/cell well)", "setting": "[7]", "result": 643}, {"measurement": "Cyclic AMP produced; 5C9 10 µg/mL + TSH (fmol/cell well)", "setting": "[7]", "result": 286}, {"measurement": "Cyclic AMP produced; 5C9 100 µg/mL + TSH (fmol/cell well)", "setting": "[7]", "result": 158}, {"measurement": "Cyclic AMP produced; 5C9 100 µg/mL only (fmol/cell well)", "setting": "[7]", "result": 458}, {"measurement": "% of labelled protein bound", "setting": "[8]", "result": 17, "unit": "%"}]}]}
